Values quoted from earlier work, collected in patent US20110171162A1, “POLYMER CONJUGATES OF THYMOSIN ALPHA 1 PEPTIDES” (NEKTAR THERAPEUTICS, priority 2008, published 2011).

Settings: in human plasma

## thymosin alpha 1: Twenty-eight amino acid peptide, SEQ ID NO: 1 (SDAAVDTSSEITTKDLKEKKEVVEEAEN); sold as ZADAXIN thymosin alpha 1, injection (thymalfasin) (listed as Homo sapiens)
  half-life: approximately two
